Assay results published in US20100047255A1 (Harvard, published 2010).
Numbering of substitutions follows the chain as printed. Names and notes keep the numbering of the source. Each block holds one binder with its values, some of them ahead of it.

How the values were obtained:
[1] = target: Nedd8 (endogenous protein of 293T cells) (human, UniProt Q15843 1-76); assay: anti-Nedd8 immunoblot of anti-HA immune complexes from 293T cells, non-reducing SDS-PAGE
[2] = target: ubiquitin (endogenous protein of 293T cells) (human, UniProt P0CG48 1-76); assay: LC/MS/MS (LTQ-Orbitrap) of Flag-HA-Uba6˜Ub purified from mammalian cells

Nedd8 (endogenous protein of 293T cells), sequence (Q15843 1-76 limits assumed): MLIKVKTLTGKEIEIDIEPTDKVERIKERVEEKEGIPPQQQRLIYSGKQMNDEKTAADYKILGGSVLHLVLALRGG

binding result [1]: no binding
B1: Flag-HA-Uba6^C625S (enzyme)
chain: MEGSEPVAAHQGEKASCSSWGTGSTNKNLPIMSTASVEIDDALYSRQRYVLGDTAMQKMAKSHVFLSGMGGLGLEIAKNLVLAGIKAVTIHDTEKCQAWDLGTNFFLSEDDVVNKRNRAEAVLKHIAELNPYVHVTSSSAPFNETTDLSFLDKYQCVVLTEMKLPLQKKINDFCRSQCPPIKFISADVHGIWSRLFCDFGDEFEVLDTTGEEPKEIFISNITQTNPGIVTCLENHPHKLETGQFLTFREINGMTGLNGSIQQITVISPFSFSIGDTTELEPYLHGGIAVQVKTPKTVFFESLERQLKHPKCLIVDFSNPEAPLEIHTAMLALDQFQEKYSRKPNVGCQQDSEELLKLATSISETLEEKPDVNADIVHWLSWTAQGFLSPLAAAVGGVASQEVLKAVTGKFSPLCQWLYLEAADIVESLGKPECEEFLPRGDRYDALRACIGDTLCQKLQNLNIFLVGCGAIGCEMLKNFALLGVGTSKEKGMITVTDPDLIEKSNLNRQFLFRPHHIQKPKSYTAADATLKINSQIKIDAHLNKVCPTTETIYNDEFYTKQDVIITALDNVEARRYVDSRCLANLRPLLDSGTMGTKGHTEVIVPHLTESYNSHRDPPEEEIPFSTLKSFPAAIEHTIQWARDKFESSFSHKPSLFNKFWQTYSSAEEVLQKIQSGHSLEGCFQVIKLLSRRPRNWSQCVELARLKFEKYFNHKALQLLHCFPLDIRLKDGSLFWQSPKRPPSPIKFDLNEPLHLSFLQNAAKLYATVYCIPFAEEDLSADALLNILSEVKIQEFKPSNKVVQTDETARKPDHVPISSEDERNAIFQLEKAILSNEATKSDLQMAVLSFEKDDDHNGHIDFITAASNPRAKMYSIEPADRFKTKRIAGKIIPAIATTTATVSGLVALEMIKVTGGYPFEAYKNCFLNLAIPIVVFTETTEVRKTKIRNGISFTIWDRWTVHGKEDFTLLDFINAVKEKYGIEPTMVVQGVKMLYVPVMPGHAKRLKLTMHKLVKPTTEKKYVDLTVSFAPDIDGDEDLPGPPVRYYFSHDTD
notes: Catalytic cysteine changed to serine; also called C625S mutant; Flag-HA-Ub6^C625S; not shown: N-terminal Flag-HA tag

binding result [2]: binds
B2: Flag-HA-Uba6 (enzyme)
chain: B1 chain with S625C
notes: also called HA-Flag-Uba6; wild-type Uba6 with N-terminal Flag-HA tag; not shown: N-terminal Flag-HA tag
